Experimental data: patent publication US20040233833A1, “Methods for identifying compounds with thrapeutic potential for treatment of central Neurodegenerative diseases resulting from abnormal protein or peptide accumulation” (priority 2001, published 2004)

Legend:
[1] = target: proteasome (chymotrypsin-like activity) (Homo sapiens, UniProt P28072+P28074+Q99436); assay: Activity screen of E. coli lysates expressing mutagenized REGγ for stimulation of LLVY-MCA cleavage; format: biochemical; conditions: 170 ng proteasome, 100 μM LLVY-MCA, 10-minute incubation; 1400 colonies
Method: Error-prone PCR was used to introduce random mutation into the REGγ DNA. See Zhang et al., (1998)Idnetification of an Activation Region in the Proteasome Activator REGα. Proc. Natl. Acad. Sci. 95:2807-2811. The PCR products were inserted into pET26(b) through NdeI/BamHI sites. The resulting plasmid library was transformed into BL21(DE3) cells. About 60% of the isolated colonies contained a single-site mutation.
Transformants were picked and grown at 37° C. in LB containing 25 μg/ml kanamycin. Protein expression was induced with 0.8 mM IPTG for 2 hours at 30° C. Cells were collected by centrifugation and lysed with 10 mM Tris-HCL, pH 7.5, 0.5% Triton X-100, and 0.3 mg/ml polymixin B sulfate. Aliquots were incubated with 170 ng proteasome and 100 μM LLVY (SEQ ID NO:1)-MCA. After a 10-minute incubation, reactions were terminated with 200 μl of ethanol and fluorescence was measured. See Li et al (2000), The Proteasome Activator 11S REG or PA28: Chimeras Implicate Carboxyl-Terminal Sequences in Oligomerization and Proteasome Binding But Not in the Activation of Specific Proteasome Catalytic Subunits, J. Mol. Biol. 299:641-54.

proteasomes = proteasomes (Homo sapiens, UniProt P28072+P28074+Q99436); assay: Proteasomal degradation of fluorescein-labeled polyQ peptides (molecular exclusion chromatography); format: biochemical; conditions: proteasome + activator, 5 hr incubation
Method: The following peptides were synthesized using routine peptide synthesis:
Each peptide was incubated for 5 hr with proteasomes alone, proteasomes+REGγ, proteasome+REGγ(K188E) or proteasomes+REGα/β. Degradation was assayed by molecular exclusion chromatography using fluorescein as a signal (see FIG. 2). The degradation products were identified by HPLC-MS (FIG. 3). […] By contrast, in the presence of REGγ(K188E) the various polyQ peptides were degraded 5 to 10-fold faster.

[2] = target: T1, Human red blood cell proteasomes (Homo sapiens, UniProt P28072+P28074+Q99436); assay: Activation of fluorogenic peptide hydrolysis by the proteasome in the presence of REG variants; format: biochemical; conditions: for Stimulation of cleavage (x-fold) LLE: substrate LLE-βNA (PGPH site); for Stimulation of cleavage (x-fold) LLVY: substrate LLVY-MCA (chymotrypsin-like site); for Stimulation of cleavage (x-fold) LRR: substrate LRR-MCA (trypsin-like site); for Stimulation of hydrolysis of LLVY-MCA and LLE-βNA: summary of Table 1
T1 construct: Human red blood cell proteasomes; from tissue; host or cells: human red blood cells
Method: Human red blood cell proteasomes (170 ng) were mixed with increasing amounts of purified REG variants. The reactions were started by adding 50 μl of 200 μMscu-LLVY-MCA, Boc-LRR-MCA, or Boc-LLE-βNA in 10 mM Tris, pH 7.5. After a 10 min incubation, the reaction was quenched with 200μl of cold 100% ethanol, and the released MCA or βNA ws measured fluometrically. Each data point represents the mean of three measurements from a single experiment. […] REGα (▪), REGγ(□), REGγ(K188E) or REGγ(K188D) (●), REGγ(K188H) (∘), REGγ(K188Q) or REGγ(K188N) (Δ), REGγ(K188A) (♦). The data for REGγ(K188E) and REGγ(K188D) and for REGγ(K188Q) and REGγ(K188N) were combined since their activities were indistinguishable.
Because each positive variant identified in the previous example included a mutation at Lys188, site-directed mutagenesis was used to generate a series of amino acid substitutions at this residue. Twelve mutants were constructed in which Lys188 of REGγ was changed to Ala, Arg, Asn, Asp, Cys, Gln, Glu, His, Ile, Phe, Pro, or Ser. Wild-type REGγ and the Lys 188 variants were expressed in E. coli, purified, and the activation specificity of each protein was measured using the diagnostic peptides LLVY (SEQ ID NO:1)-MCA, LRR-MCA, and LLE-βNA. Except for the K188R variant, all Lys 188 mutants stimulated the hydrolysis of LRR-MCA by the proteasome to the same extent or slightly better than wild-type REGγ. Substitution of negatively-charged Glu or Asp for the positively-charged Lys188 produced mutants with activation properties almost identical to REGα.
To determine the degree to which the activation specificity of REGγ(K188E/D) variants matches that of REGα, proteasomal cleavage of a series of fluorogenic peptides was measured in the presence of each activator.

[3] = Heptamer stability on rechromatography (Superdex 200 size exclusion column); format: physicochemical; conditions: for Percent heptamer: after second gel filtration; for Percentage that remained heptamers on rechromatography: Superdex 200 second gel filtration
From the text: To examine the effect of Lys188 substitution on REGγ heptamer stability, the wildtype and Lys 188 variant heptamers were rechromatographed on the Superdex 200 (26/60) size exclusion column used for purification. […] Replacement of Lys 188 by Pro or Phe severely affected the stability of REGγ heptamer.

proteasome = proteasome (Homo sapiens, UniProt P28072+P28074+Q99436); assay: REGα(N146Y)/REGβ(N135Y) competition assay for relative proteasome affinity; format: binding; conditions: in terms of REGα(N146Y)/REGβ(N135Y) competition; wild-type REGγ 100
From the text: As a measure of the relative affinities of REGγ and the REGγLys188 mutants for the proteasome, a competition assay was used. See Li et al. (2000), The Proteasome Activator 11S REG or PA28: Chimeras Implicate Carboxyl-Terminal Sequences in Oligomerization and Proteasome Binding But Not in the Activation of Specific Proteasome Catalytic Subunits. J. Mol. Biol. 299:641-54. All REGγLys188 mutants were relatively resistant to REGα(N146Y)/REGβ(N135Y) competition with apparent proteasome affinities varying from 40% to 90% that of wild-type REGγ.

| Substance | Stimulation of cleavage (x-fold) LLE [2] | Stimulation of cleavage (x-fold) LLVY [2] | Stimulation of cleavage (x-fold) LRR [2] | Percent heptamer [3] | Relative affinity for proteasome (proteasome) | Percentage that remained heptamers on rechromatography [3] | other results |
| --- | --- | --- | --- | --- | --- | --- | --- |
| (F102I, K188N): REGγ double mutant F102I, K188N isolated from the error-prone PCR library | – | – | – | – | – | – | Colony screen for stimulation of LLVY-MCA cleavage [1]: positive |
| (L38V, K188N): REGγ double mutant L38V, K188N isolated from the error-prone PCR library | – | – | – | – | – | – | Colony screen for stimulation of LLVY-MCA cleavage [1]: positive |
| (L71P, K188E): REGγ double mutant L71P, K188E isolated from the error-prone PCR library | – | – | – | – | – | – | Colony screen for stimulation of LLVY-MCA cleavage [1]: positive |
| REGα/β: REGα/β hetero-heptamer proteasome activator | – | – | – | – | – | – | % Degraded, substrate F1-EPQPQ (proteasomes): 55%; % Degraded, substrate F1-KSQPQ (proteasomes): 85%; % Degraded, substrate F1-QHQ (proteasomes): 80%; % Degraded, substrate F1-QPQ (proteasomes): 85%; % Degraded, substrate F1-QQQ (proteasomes): 85% |
| γK188A: mutant REGγ in which Lys188 was changed to Ala | 6 x-fold | 6 x-fold | 13 x-fold | 60% | 60 | – | Stimulation of hydrolysis of LLVY-MCA and LLE-βNA [2]: 6 fold |
| γK188F: mutant REGγ in which Lys188 was changed to Phe | 4 x-fold | 4 x-fold | 13 x-fold | Dimer | 40 | remained monomers or dimers | – |
| γK188H: mutant REGγ in which Lys188 was changed to His | 4 x-fold | 5 x-fold | 14 x-fold | >95% | 50 | remained fully heptameric | – |
| γK188I: mutant REGγ in which Lys188 was changed to Ile | 3 x-fold | 2 x-fold | 12 x-fold | >95% | 60 | remained fully heptameric | Stimulation of hydrolysis of LLVY-MCA and LLE-βNA [2]: 2 fold |
| γK188N: mutant REGγ in which Lys188 was changed to Asn | 5 x-fold | 5 x-fold | 14 x-fold | 80% | 75 | – | Colony screen for stimulation of LLVY-MCA cleavage [1]: positive |
| γK188P: mutant REGγ in which Lys188 was changed to Pro | 1 x-fold | 1 x-fold | 12 x-fold | 50% | 40 | – | Heptamers dissociated during the second gel filtration ([3]; Superdex 200): About 50% |
| γK188Q: mutant REGγ in which Lys188 was changed to Gln | 5 x-fold | 5 x-fold | 14 x-fold | 80% | 75 | – | – |
| γK188R: mutant REGγ in which Lys188 was changed to Arg | 0.7 x-fold | 0.7 x-fold | 10 x-fold | >95% | 75 | remained fully heptameric | – |
| γKI88S: mutant REGγ in which Lys188 was changed to Ser | 3 x-fold | 3 x-fold | 14 x-fold | >95% | 50 | remained fully heptameric | – |
| γKl88C: mutant REGγ in which Lys188 was changed to Cys | 5 x-fold | 6 x-fold | 13 x-fold | 70% | 60 | – | Stimulation of hydrolysis of LLVY-MCA and LLE-βNA [2]: 6 fold |
